How the values were obtained:
[1] = biological target: T1, SUMO2-tagged GajAB complex (Bacillus cereus VD045), 4:4 (Bacillus cereus VD045, UniProt J8H9C1 2-578; J8HQ06 1-494); assay: cryo-EM structure; SUMO2-GajAB–Gad1 (Phi3T) co-complex, 1 mg ml^-1, 2.57 Å D2 symmetry map; conditions: both partners purified
T1 construct: GajA, Bacillus cereus VD045, IMG ID 2519684552; GajB, Bacillus cereus VD045, IMG ID 2519684553; also called SUMO2-GajAB; SUMO2-tagged BcGajAB; source: E. coli, co-expressed, purified (Ni-NTA, SEC); not shown: 6×His-SUMO2, N-terminal, kept; copies: 4 + 4
T1 sequence 1: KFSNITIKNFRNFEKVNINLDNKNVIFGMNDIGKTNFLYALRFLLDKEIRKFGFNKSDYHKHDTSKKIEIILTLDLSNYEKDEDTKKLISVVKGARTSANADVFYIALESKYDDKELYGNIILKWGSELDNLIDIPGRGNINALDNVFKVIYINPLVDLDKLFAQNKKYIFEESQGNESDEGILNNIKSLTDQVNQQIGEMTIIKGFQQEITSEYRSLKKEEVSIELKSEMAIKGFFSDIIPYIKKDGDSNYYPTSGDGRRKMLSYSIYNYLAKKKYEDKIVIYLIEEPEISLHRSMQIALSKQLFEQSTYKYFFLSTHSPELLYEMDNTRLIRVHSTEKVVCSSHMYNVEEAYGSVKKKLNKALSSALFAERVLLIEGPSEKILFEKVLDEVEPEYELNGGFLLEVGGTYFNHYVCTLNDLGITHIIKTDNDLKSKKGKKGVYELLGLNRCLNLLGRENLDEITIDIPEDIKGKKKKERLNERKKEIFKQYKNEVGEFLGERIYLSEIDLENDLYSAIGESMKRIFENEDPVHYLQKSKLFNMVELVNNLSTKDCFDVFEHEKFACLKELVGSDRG
T1 sequence 2: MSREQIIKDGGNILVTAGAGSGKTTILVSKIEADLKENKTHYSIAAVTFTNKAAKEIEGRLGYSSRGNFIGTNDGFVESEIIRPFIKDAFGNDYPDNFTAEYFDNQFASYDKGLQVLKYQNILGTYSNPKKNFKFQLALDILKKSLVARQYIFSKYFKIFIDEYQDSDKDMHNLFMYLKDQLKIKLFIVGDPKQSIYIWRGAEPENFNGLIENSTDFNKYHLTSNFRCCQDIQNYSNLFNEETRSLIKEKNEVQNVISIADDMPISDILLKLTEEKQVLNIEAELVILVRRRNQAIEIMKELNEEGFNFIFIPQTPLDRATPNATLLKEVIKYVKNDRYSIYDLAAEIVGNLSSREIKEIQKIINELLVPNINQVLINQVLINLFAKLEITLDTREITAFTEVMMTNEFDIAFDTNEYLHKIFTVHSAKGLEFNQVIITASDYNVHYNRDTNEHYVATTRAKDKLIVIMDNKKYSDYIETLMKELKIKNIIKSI

[2] = biological target: the molecule itself; assay: as above
[3] = biological target: the molecule itself; assay: SEC; 16/600 S200 (Superdex 200); recombinant BcGajA and BcGajB each run alone
[4] = biological target: the molecule itself; assay: crystal structure; co-expressed and co-purified GajAB, 3.0 Å; hanging drop, 18 °C, 100 mM HEPES-NaOH pH 7.5, 2.4% PEG-400, 2.2 M ammonium sulfate

B1: Bacillus phage Phi3T Gad1 (Gabija anti-defence 1) (natural protein)
chain: MKLIGIKTSNCFLVSDNIEGKRYFHSQLDELLFDGKRATETYKSDWFKLEKEPSVIEKQMPAKKINHRYELKEGFQESELTPKVIKASYIGEDSEYYEVKGLYDLKFEEIPQQNEKIEFEMNVIEEIDGELKLQSHNFNLNYNLLDRIQTHPMLLETKPCYLSQEESYKIIRNHIKANINPKFARITSDYDFCLTVVKVLELYKPHEYIVDLNAMYKRRKPKLEKRFQTKREVEIYKVAPKAYQSYPIVEPFSGKDVEDLKSNIKKFLDDLMAKINEPLVECKCCKGRGVILNEN
notes: Gad1, Bacillus phage Phi3T, 35 kDa; Eight copies stand in the 4:4:8 GajAB–Gad1 complex; source: E. coli, co-expressed with SUMO2-GajAB (pBAD vector), co-purified (Ni-NTA, SEC)
[1]
  stoichiometry N: 8 Gad1 per 4:4 GajAB complex
[2]
  stoichiometry N: 8

B2: Bacillus cereus VD045 GajA (Gabija protein A), expressed alone (enzyme)
chain: KFSNITIKNFRNFEKVNINLDNKNVIFGMNDIGKTNFLYALRFLLDKEIRKFGFNKSDYHKHDTSKKIEIILTLDLSNYEKDEDTKKLISVVKGARTSANADVFYIALESKYDDKELYGNIILKWGSELDNLIDIPGRGNINALDNVFKVIYINPLVDLDKLFAQNKKYIFEESQGNESDEGILNNIKSLTDQVNQQIGEMTIIKGFQQEITSEYRSLKKEEVSIELKSEMAIKGFFSDIIPYIKKDGDSNYYPTSGDGRRKMLSYSIYNYLAKKKYEDKIVIYLIEEPEISLHRSMQIALSKQLFEQSTYKYFFLSTHSPELLYEMDNTRLIRVHSTEKVVCSSHMYNVEEAYGSVKKKLNKALSSALFAERVLLIEGPSEKILFEKVLDEVEPEYELNGGFLLEVGGTYFNHYVCTLNDLGITHIIKTDNDLKSKKGKKGVYELLGLNRCLNLLGRENLDEITIDIPEDIKGKKKKERLNERKKEIFKQYKNEVGEFLGERIYLSEIDLENDLYSAIGESMKRIFENEDPVHYLQKSKLFNMVELVNNLSTKDCFDVFEHEKFACLKELVGSDRG
notes: GajA, Bacillus cereus VD045, IMG ID 2519684552; gene codon-optimized and synthesized; the C-terminal 6×His construct is the only GajA-alone construct described; also called BcGajA; GajA alone; source: E. coli BL21(DE3) strains, purified (Ni-NTA, SEC); also co-expressed with Shewanella phage 1/4 Gad1, in lysate for Ni-NTA co-purification; not shown: 6×His, C-terminal, kept
[3]
  stoichiometry N: 4

B3: Bacillus cereus VD045 GajA, co-expressed with GajB, tag removed (subunit of the GajAB complex) (enzyme)
chain: KFSNITIKNFRNFEKVNINLDNKNVIFGMNDIGKTNFLYALRFLLDKEIRKFGFNKSDYHKHDTSKKIEIILTLDLSNYEKDEDTKKLISVVKGARTSANADVFYIALESKYDDKELYGNIILKWGSELDNLIDIPGRGNINALDNVFKVIYINPLVDLDKLFAQNKKYIFEESQGNESDEGILNNIKSLTDQVNQQIGEMTIIKGFQQEITSEYRSLKKEEVSIELKSEMAIKGFFSDIIPYIKKDGDSNYYPTSGDGRRKMLSYSIYNYLAKKKYEDKIVIYLIEEPEISLHRSMQIALSKQLFEQSTYKYFFLSTHSPELLYEMDNTRLIRVHSTEKVVCSSHMYNVEEAYGSVKKKLNKALSSALFAERVLLIEGPSEKILFEKVLDEVEPEYELNGGFLLEVGGTYFNHYVCTLNDLGITHIIKTDNDLKSKKGKKGVYELLGLNRCLNLLGRENLDEITIDIPEDIKGKKKKERLNERKKEIFKQYKNEVGEFLGERIYLSEIDLENDLYSAIGESMKRIFENEDPVHYLQKSKLFNMVELVNNLSTKDCFDVFEHEKFACLKELVGSDRG
notes: GajA, Bacillus cereus VD045, IMG ID 2519684552; the 5×GS linker may stay on GajA after SENP2 cleavage; also called BcGajA; source: E. coli BL21(DE3) strains, co-expressed with GajB, purified (Ni-NTA, SUMO2 cleavage by hSENP2, SEC); not shown: 6×His-SUMO2-5×GS, N-terminal, cleaved
[4]
  stoichiometry N: 4

From article PMC10781630, “Structural basis of Gabija anti-phage defence and viral immune evasion” (Nature, 2023)
